Consider 4 molecules from doi:10.1101/2025.05.21.655431 (bioRxiv, 2025).

Where two headings read alike, the source gives them in different places.

One data set has as its target His-WRKY48 (recombinant) (Arabidopsis thaliana, UniProt Q9FGZ4 1-399). Nature of the data set: pull-down.
In data set [1] the target is T1, WRKY28 (Arabidopsis thaliana, UniProt Q8VWJ2 1-318). Nature of the data set: EMSA. For orientation: Mobility shift assays separate free from complexed probe on a gel.
Data set [2] deals with T2, WRKY8 (Arabidopsis thaliana, UniProt Q9FL26 1-326). Nature of the data set: EMSA.
T2 sequence (Q9FL26 whole entry): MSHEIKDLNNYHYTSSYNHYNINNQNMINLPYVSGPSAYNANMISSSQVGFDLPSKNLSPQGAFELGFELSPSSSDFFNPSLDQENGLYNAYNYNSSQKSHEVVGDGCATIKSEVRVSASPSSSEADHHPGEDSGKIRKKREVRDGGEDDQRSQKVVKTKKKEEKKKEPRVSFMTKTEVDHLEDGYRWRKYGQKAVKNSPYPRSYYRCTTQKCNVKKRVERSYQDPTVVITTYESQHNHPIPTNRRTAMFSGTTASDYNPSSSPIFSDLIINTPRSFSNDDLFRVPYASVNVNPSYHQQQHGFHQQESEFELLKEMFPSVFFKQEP
The target in data set [3] is T3, WRKY48 (Arabidopsis thaliana, UniProt Q9FGZ4 1-399). Nature of the data set: EMSA.
T3 sequence (Q9FGZ4 whole entry): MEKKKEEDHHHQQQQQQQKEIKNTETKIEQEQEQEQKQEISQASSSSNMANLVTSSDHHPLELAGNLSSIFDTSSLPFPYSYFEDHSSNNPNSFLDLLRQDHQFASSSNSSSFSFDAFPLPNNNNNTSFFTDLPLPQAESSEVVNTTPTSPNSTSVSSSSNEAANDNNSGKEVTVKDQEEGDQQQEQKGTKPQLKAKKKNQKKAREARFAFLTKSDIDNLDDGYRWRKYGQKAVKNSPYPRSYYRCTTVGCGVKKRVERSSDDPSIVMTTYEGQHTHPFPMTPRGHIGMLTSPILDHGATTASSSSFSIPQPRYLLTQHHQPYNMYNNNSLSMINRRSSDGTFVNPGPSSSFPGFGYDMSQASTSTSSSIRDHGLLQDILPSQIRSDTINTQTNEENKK
For data set [4], the target named is T1, WRKY28. Nature of the data set: EMSA. This is another data set of the same source.
Data set [5] deals with T2, WRKY8. Nature of the data set: EMSA. The source holds these as a separate data set.
The target in data set [6] is T3, WRKY48. Nature of the data set: EMSA. The source holds these as a separate data set.

T1 sequence (Q8VWJ2 whole entry): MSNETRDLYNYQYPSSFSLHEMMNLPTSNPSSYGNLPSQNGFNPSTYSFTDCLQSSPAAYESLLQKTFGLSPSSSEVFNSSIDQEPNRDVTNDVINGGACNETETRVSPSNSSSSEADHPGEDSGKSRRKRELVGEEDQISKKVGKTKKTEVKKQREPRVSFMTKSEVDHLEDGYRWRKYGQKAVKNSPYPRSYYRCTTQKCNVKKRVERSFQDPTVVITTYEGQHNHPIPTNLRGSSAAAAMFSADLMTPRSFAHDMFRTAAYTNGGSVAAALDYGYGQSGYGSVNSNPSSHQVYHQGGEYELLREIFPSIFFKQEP
His-WRKY48 (recombinant), sequence (Q9FGZ4 whole entry): as the sequence (Q9FGZ4 whole entry) above

B1: GST-MPK3 (recombinant) (enzyme, Arabidopsis thaliana, UniProt Q39023 1-370, looked up)
chain: MNTGGGQYTDFPAVETHGGQFISYDIFGSLFEITSKYRPPIIPIGRGAYGIVCSVLDTETNELVAMKKIANAFDNHMDAKRTLREIKLLRHLDHENIIAIRDVVPPPLRRQFSDVYISTELMDTDLHQIIRSNQSLSEEHCQYFLYQLLRGLKYIHSANIIHRDLKPSNLLLNANCDLKICDFGLARPTSENDFMTEYVVTRWYRAPELLLNSSDYTAAIDVWSVGCIFMELMNRKPLFPGKDHVHQMRLLTELLGTPTESDLGFTHNEDAKRYIRQLPNFPRQPLAKLFSHVNPMAIDLVDRMLTFDPNRRITVEQALNHQYLAKLHDPNDEPICQKPFSFEFEQQPLDEEQIKEMIYQEAIALNPTYG
For the molecule B1, in the data set with His-WRKY48 (recombinant), the binding result is listed as “binds”.

B2: CIPK6 promoter P1 (TTGACA) (dsDNA)
DNA 1: CATCGCTATCCAAATAATTGACAAACTCGAAGCCGCC
DNA 2: GGCGGCTTCGAGTTTGTCAATTATTTGGATAGCGATG
Take B2: the binding result in the data set with WRKY28 [1] is “no binding”; in the data set with WRKY8 [2], “no binding”; with WRKY48 [3], “binds”.

B3: CIPK6 promoter P2 (GGTCA) (dsDNA)
DNA 1: GTTTAATTACTATCACACCGGTCACGCTGGTTTACC
DNA 2: GGTAAACCAGCGTGACCGGTGTGATAGTAATTAAAC
As for B3, the binding result with WRKY28 [1] and with WRKY8 [2] was “no binding” in each case.

B4: CIPK6 promoter P1+P2 (dsDNA)
DNA 1: TAAATCGCATCGTGACCGGTCATAAAAAGACACGTGTCGTCATCGCTATCCAAATAATTGACAAACTCGAAGCCGCCAAGGG
DNA 2: CCCTTGGCGGCTTCGAGTTTGTCAATTATTTGGATAGCGATGACGACACGTGTCTTTTTATGACCGGTCACGATGCGATTTA
Turning to B4, the binding result with WRKY28 [4] was “no binding”; with WRKY8 [5], “no binding”; with WRKY48 [6] it was “binds”.
